Values of other authors in article PMC4859759.

Target: VEGFR2 IgG domains 3-5 (Homo sapiens) (UniProt P35968)
Sequence (P35968 224-548): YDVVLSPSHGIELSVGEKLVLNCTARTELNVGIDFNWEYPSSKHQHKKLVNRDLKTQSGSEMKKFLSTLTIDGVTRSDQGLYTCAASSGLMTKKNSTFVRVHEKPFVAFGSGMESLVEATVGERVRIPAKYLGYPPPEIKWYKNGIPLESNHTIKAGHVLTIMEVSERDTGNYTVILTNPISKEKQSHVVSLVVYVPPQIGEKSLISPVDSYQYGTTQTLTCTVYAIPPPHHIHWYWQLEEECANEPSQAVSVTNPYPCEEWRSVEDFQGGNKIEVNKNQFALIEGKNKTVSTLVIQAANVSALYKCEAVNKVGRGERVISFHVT

endorepellin (perlecan) LG1/2, sequence (P98160 3687-4103): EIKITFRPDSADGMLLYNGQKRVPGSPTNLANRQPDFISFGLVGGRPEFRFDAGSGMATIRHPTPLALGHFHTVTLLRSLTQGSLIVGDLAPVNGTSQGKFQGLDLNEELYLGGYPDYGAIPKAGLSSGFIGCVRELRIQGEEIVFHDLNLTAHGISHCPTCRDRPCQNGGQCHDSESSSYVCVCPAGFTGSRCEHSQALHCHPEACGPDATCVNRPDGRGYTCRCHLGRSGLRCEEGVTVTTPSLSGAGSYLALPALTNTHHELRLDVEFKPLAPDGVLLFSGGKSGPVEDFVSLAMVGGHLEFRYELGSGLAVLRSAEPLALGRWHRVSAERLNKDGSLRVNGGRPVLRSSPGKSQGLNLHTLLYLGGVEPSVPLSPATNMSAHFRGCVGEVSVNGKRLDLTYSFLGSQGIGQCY

Kd: 2.8 nM
Substance: endorepellin (perlecan) LG1/2 (from UniProt P98160)
